Experimental data published in PMC7435274.

Columns and labels:
[1] = molecular target: Cys^5-antag: secretin antagonist (c[E^16, K^20], Y^10, I^17, Cha^22, R^25)sec(5–27) with cysteine in position 5; assay: cysteine trapping with 125I-labeled probe, SDS-PAGE autoradiography densitometry; settings: SecR cysteine replacement mutants transiently expressed in COS-1 cells; nonreducing conditions; three experiments; read off a plot
[2] = molecular target: Cys^6-antag: secretin antagonist (c[E^16, K^20], Y^10, I^17, Cha^22, R^25)sec(5–27) with cysteine in position 6; assay: as above; settings: SecR cysteine replacement mutants transiently expressed in COS-1 cells; nonreducing conditions; three experiments; read off a plot

Row | Substance | response (% of maximal signal within this loop) [1] | response (% of maximal signal within this loop) [2]
1 | wild-type human secretin receptor, on COS-1 cells (from UniProt P47872) A359C | 88 | 98
2 | wild-type human secretin receptor, on COS-1 cells (from UniProt P47872) A365C | 22 | 37
3 | wild-type human secretin receptor, on COS-1 cells (from UniProt P47872) D364C | 22 | 33
4 | wild-type human secretin receptor, on COS-1 cells (from UniProt P47872) E363C | 22 | 21
5 | wild-type human secretin receptor, on COS-1 cells (from UniProt P47872) E367C | 4 | 12
6 | wild-type human secretin receptor, on COS-1 cells (from UniProt P47872) E373C | 28 | 62
7 | wild-type human secretin receptor, on COS-1 cells (from UniProt P47872) F358C | 75 | 93
8 | wild-type human secretin receptor, on COS-1 cells (from UniProt P47872) F360C | 63 | 70
9 | wild-type human secretin receptor, on COS-1 cells (from UniProt P47872) F371C | 22 | 40
10 | wild-type human secretin receptor, on COS-1 cells (from UniProt P47872) F372C | 28 | 46
11 | wild-type human secretin receptor, on COS-1 cells (from UniProt P47872) I368C | 12 | 20
12 | wild-type human secretin receptor, on COS-1 cells (from UniProt P47872) L370C | 19 | 43
13 | wild-type human secretin receptor, on COS-1 cells (from UniProt P47872) L374C | 35 | 88
14 | wild-type human secretin receptor, on COS-1 cells (from UniProt P47872) M366C | 18 | 35
15 | wild-type human secretin receptor, on COS-1 cells (from UniProt P47872) P362C | 30 | 40
16 | wild-type human secretin receptor, on COS-1 cells (from UniProt P47872) Q369C | 14 | 41
17 | wild-type human secretin receptor, on COS-1 cells (from UniProt P47872) S361C | 87 | 80
